Assay results taken from patent US20230210897A1.

Assays:
Experiment in all cases: cell-based or functional assay
[1] = target: NKA receptor (truncated TGFβ dominant negative receptor fused to DAP12) (human)
[2] = target: NKCT receptor (truncated TGFβ dominant negative receptor fused to a SynNotch receptor coupled to RELA/p65) (human) (UniProt P37173)
[3] = target: RBDNR receptor (truncated TGFβ dominant negative receptor) (human) (UniProt P37173)
[4] = target: wild-type TGFβRII on untransduced (UT) cord blood-derived NK cells (human) (UniProt P37173)

NKA receptor (truncated TGFβ dominant negative receptor fused to DAP12) (human), sequence (chain, as listed by the source limits assumed, form in doubt): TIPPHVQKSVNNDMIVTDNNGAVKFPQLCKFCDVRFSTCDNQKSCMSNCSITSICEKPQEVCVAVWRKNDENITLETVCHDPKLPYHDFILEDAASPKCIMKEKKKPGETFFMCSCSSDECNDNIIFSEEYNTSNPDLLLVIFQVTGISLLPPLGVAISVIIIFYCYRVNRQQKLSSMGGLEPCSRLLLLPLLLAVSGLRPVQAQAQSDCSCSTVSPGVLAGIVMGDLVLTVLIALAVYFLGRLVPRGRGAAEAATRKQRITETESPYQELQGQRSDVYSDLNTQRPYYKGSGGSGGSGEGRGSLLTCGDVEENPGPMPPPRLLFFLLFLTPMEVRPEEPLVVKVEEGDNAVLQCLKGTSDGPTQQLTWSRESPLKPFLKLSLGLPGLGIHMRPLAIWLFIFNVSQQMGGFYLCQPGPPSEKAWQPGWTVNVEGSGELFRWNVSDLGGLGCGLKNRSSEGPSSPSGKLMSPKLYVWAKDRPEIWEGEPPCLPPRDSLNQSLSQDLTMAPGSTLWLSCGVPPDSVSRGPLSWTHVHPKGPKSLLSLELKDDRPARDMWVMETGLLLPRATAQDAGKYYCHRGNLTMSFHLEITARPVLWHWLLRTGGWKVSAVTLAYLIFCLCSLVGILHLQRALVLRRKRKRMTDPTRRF

protection from TGFβ-impaired cytolytic activity in vitro (TGFβ concentration at which protection is lost) [1]: > 50 ng/mL
protection from TGFβ-impaired cytolytic activity in vitro (TGFβ concentration at which protection is lost) [2]: > 50 ng/mL
protection from TGFβ-impaired cytolytic activity in vitro (TGFβ concentration at which protection is lost) [3]: > 50 ng/mL
phosphorylated Smad2/3 (Ser465/467) by flow cytometry in untransduced NK cells, 1 hour after 10 ng/mL TGFβ [4]: 73.9%
Substance: TGFβ (ligand)
